What was measured:
His79 = His79 (UniProt position 85, YIPGTHMAFGG); assay: UV-vis; settings: ferric protein implied, His79-mediated alkaline transition
His73 = His73 (UniProt position 79, LTNPKHYIPGT); assay: UV-vis; settings: ferric protein implied (alkaline transition); cited from earlier work

Q: Which pKa (His79; cited from earlier work) does the source give for “iso-1-cytochrome c, WT*/K79H variant (Saccharomyces cerevisiae; K72A;K79H;C102S)” here?
A: 6.35 ± 0.04

Q: For “iso-1-cytochrome c, yWT/K73H variant (Saccharomyces cerevisiae; K73H)”, which pKa (His73) is on record?
A: 6.60 ± 0.06

Q: With “iso-1-cytochrome c, yWT/K79H variant (Saccharomyces cerevisiae; K79H)” as the substance, how does the pKa (His79) read?
A: 6.62 ± 0.08

— article PMC4485566
